This assay has as its target PCSK9抗原 (前蛋白转化酶枯草溶菌素9, Proprotein convertase subtilisin/kexin type 9). The experiment in a line: SPR, Biacore T200, PCSK9 coupled to CM5 chip (~790 RU), VHH as analyte 218-13.5 nM.

The source of these data is patent CN116333149A (UNIV HENAN URBAN CONSTRUCTION, dated 2023).

B1: PCSK9单域抗体VHHH12 (VHH)
VHH: QVQLQESGGGLVQAGGSLRLSCAASGRTFSDYAVGWFRQAPGKEREFVAGIGWSGGQTTYADSVKGRFTISRDNAKDTVYLQMNSLKPEDTAVYVCAASFLVIPGTVKTRYDSWGQGTQVTVPA
notes: Alpaca VHH expressed from pMECS in E. coli HB2151 and purified on a Ni column; also called 抗PCSK9单域抗体VHHH12; PCSK9单域抗体蛋白VHHH12; not shown: C-terminal tags from the pMECS vector (HA tag, detected with anti-HA antibody)
Broadly, the Kd is the free concentration of one partner at which half of the binding sites on the other are occupied at equilibrium, for simple one-to-one binding. Read a high Kd as weaker binding. Usually koff stands for the rate constant with which the complex falls apart. Broadly, the kon is the rate constant with which the complex forms. The molecule B1 returned a Kd of 2.63 nM, a koff of 0.000584 s⁻¹ and a kon of 222000 M⁻¹ s⁻¹.
